Reference: publication PMC11850223

How the values were obtained:
[1] = target: Hera_1–419_K51Q (ATPase-deficient variant) (Thermus thermophilus); assay: SEC
[2] = target: Hera_1–510_K51Q (ATPase-deficient variant) (Thermus thermophilus); assay: SEC

Substance | stoichiometry N [1] | stoichiometry N [2]
Hera_1–419_K51Q (ATPase-deficient variant) (domain or fragment) | 2 | –
Hera_1–510_K51Q (ATPase-deficient variant) (enzyme) | – | 2
